{"source": "patent US20250212928A1", "target": "bovine trypsin (bovine) (UniProt P00760)", "sequence (P00760 24-246)": "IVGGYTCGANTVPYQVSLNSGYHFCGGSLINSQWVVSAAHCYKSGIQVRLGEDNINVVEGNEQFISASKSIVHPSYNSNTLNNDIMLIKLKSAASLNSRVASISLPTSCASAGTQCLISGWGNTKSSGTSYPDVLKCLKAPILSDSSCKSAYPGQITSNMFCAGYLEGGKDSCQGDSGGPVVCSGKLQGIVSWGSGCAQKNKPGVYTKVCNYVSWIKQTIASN", "test": "cell-based or functional assay"}
{"substance": "native chicken ovomucoid (nOVD), from chicken egg white (from UniProt P01005 25-210)", "values": [{"measurement": "Trypsin inhibition activity", "value": 13700, "unit": "TIU/g"}]}
